According to patent US20250320312A1 (OXITOPE PHARMA B V, published 2025):

T1: Peptide 8: Biotin-AEAAAKEAAAKEAAAKEAAAKAAA-Tyr-acid (N-terminal biotin; C-terminal acid; no PC)
T1 construct: control peptide without PC
T1 peptide: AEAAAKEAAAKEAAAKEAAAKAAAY

T2: Peptide 4: Biotin-AGGGGSGGGGSGGGGSAAA-Tyr-acid (N-terminal biotin; C-terminal acid; no PC)
T2 construct: control peptide without PC
T2 peptide: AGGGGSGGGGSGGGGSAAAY


Experiments:
Experiment in all cases: scFv ELISA
[1] = target: T1, Peptide 8: …
Outline: (§1)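 Bound scFv was read as OD450 after HRP–anti-V5 detection, TMB development and HCl stop. PPE with BSA was incubated 1 h at RT on BSA-blocked wells coated overnight at 4° C. with peptide, or on streptavidin wells loaded 1 h with biotinylated PC-peptides at 1 μg/mL.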

[2] = target: T2, Peptide 4: …
Outline: as §1

[3] = target: BSA (UniProt P02769)
BSA, sequence (P02769 25-607 limits assumed): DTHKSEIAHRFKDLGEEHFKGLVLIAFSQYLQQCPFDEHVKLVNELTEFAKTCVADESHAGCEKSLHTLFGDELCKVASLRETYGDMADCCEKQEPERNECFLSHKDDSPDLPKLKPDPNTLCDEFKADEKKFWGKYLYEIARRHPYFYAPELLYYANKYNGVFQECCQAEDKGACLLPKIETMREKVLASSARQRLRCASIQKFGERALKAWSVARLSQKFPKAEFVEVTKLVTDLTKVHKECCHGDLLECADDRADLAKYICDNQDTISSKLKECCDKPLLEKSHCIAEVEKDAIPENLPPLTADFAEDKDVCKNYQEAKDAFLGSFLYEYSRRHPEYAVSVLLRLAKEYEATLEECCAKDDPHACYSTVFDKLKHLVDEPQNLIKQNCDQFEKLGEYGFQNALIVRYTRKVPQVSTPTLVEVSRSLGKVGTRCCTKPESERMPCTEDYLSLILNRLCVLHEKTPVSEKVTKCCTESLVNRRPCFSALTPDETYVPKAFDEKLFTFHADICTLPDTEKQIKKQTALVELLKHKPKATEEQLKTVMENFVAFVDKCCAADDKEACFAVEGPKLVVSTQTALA

[4] = target: Peptide 1: Biotin-…-[Tyr(PC)]-acid
[5] = target: Peptide 5: Biotin-…-[Tyr(PC)]-acid

Binder | OD450 [1] [OD450] | OD450 [2] [OD450] | OD450 [3] [OD450] | OD450 [4] [OD450] | OD450 [5] [OD450]
PcOxP_DB02_E02 (scFv, V domains shown, scFv in periplasmic extract) VH: EVQLLESGGGLVQPGGSLRLSCAASGFTFSDEYMEWVRQAPGKGLEWVAASRNSGNSYTTAYADSVKGRFTISRDNSKNTLYLQMNSLRAEDTAVYYCARDYYGSSYWYFDVWGQGTLVTVSS VL: DIVMTQSPDSLAVSLGERATINCTASESLYSSKHKVHYLAWYQQKPGQPPKLLIYGASNRYIGVPDRFSGSGSGTDFTLTISSLQAEDVAVYYCAQFYSYPLTFGGGTKVEIK | 0.05 | 0.04 | 0.06 | 0.09 | 0.34
PcOxP_DB02_C12 (scFv, V domains shown, scFv in periplasmic extract) VH: EVQLLESGGGLVQPGGSLRLSCAASGFTFSDHYMEWVRQAPGKGLEWVAASRNKANDYTTEYADSVKGRFTISRDNSKNTLYLQMNSLRAEDTAVYYCARDYYGSSYWYFDVWGQGTLVTVSS VL: DIVMTQSPDSLAVSLGERATINCTASESLYSSKHKVHYLAWYQQKPGQPPKLLIYGAHNRYIGVPDRFSGSGSGTDFTLTISSLQAEDVAVYYCANFYSYPLTFGGGTKVEIK | 0.04 | 0.04 | 0.07 | 0.97 | 1.58
PcOxP_DB02_D02 (scFv, V domains shown, scFv in periplasmic extract) VH: EVQLLESGGGLVQPGGSLRLSCAASGFTFSDYYMEWVRQAPGKGLEWVAASRNKANDYTTEYADSVKGRFTISRDNSKNTLYLQMNSLRAEDTAVYYCARDYYGSSYWYFDTWGQGTLVTVSS VL: DIVMTQSPDSLAVSLGERATINCTSSESVYSSSHKVHYLAWYQQKPGQPPKLLIYGASNRYIGVPDRFSGSGSGTDFTLTISSLQAEDVAVYYCAQFYYYPLTFGGGTKVEIK | 0.04 | 0.04 | 0.05 | 0.16 | 0.27
PcOxP_DB02_C08 (scFv, V domains shown, scFv in periplasmic extract) VH: EVQLLESGGGLVQPGGSLRLSCAASGFTFSDPYMEWVRQAPGKGLEWVAASRNKANDYTTEYADSVKGRFTISRDNSKNTLYLQMNSLRAEDTAVYYCARDYYGSPYWYFDVWGQGTLVTVSS VL: DIVMTQSPDSLAVSLGERATINCGASESLYSSKSKVHYLAWYQQKPGQPPKLLIYGASNRYIGVPDRFSGSGSGTDFTLTISSLQAEDVAVYYCAQFYSYPLTFGGGTKVEIK | 0.04 | 0.06 | 0.06 | 0.22 | 0.39

Second part, the binder after the results:

OD450 [1] [OD450] | OD450 [2] [OD450] | OD450 [3] [OD450] | OD450 [4] [OD450] | OD450 [5] [OD450] | Binder
0.04 | 0.04 | 0.06 | 0.64 | 0.92 | PcOxP_DB02_C05 (scFv, V domains shown, scFv in periplasmic extract) VH: EVQLLESGGGLVQPGGSLRLSCAASGFTASDFYMEWVRQAPGKGLEWVAASRNKANDYTTEYADSVKGRFTISRDNSKNTLYLQMNSLRAEDTAVYYCARDYYGSSYWYFDVWGQGTLVTVSS VL: DIVMTQSPDSLAVSLGERATINCTASESLYSSKHKVHYLAWYQQKPGQPPKLLIYGASNRYIGVPDRFSGSGSGTDFTLTISSLQAEDVAVYYCAQFYSYPLTFGGGTKVEIK
0.04 | 0.04 | 0.08 | 0.42 | 0.71 | PcOxP_DB02_D03 (scFv, V domains shown, scFv in periplasmic extract) VH: EVQLLESGGGLVQPGGSLRLSCAASGFTQSDFYMEWVRQAPGKGLEWVAASRNKANAYTTEYADSVKGRFTISRDNSKNTLYLQMNSLRAEDTAVYYCARDYYGYSYWYFDVWGQGTLVTVSS VL: DIVMTQSPDSLAVSLGERATINCTASESLYSSKHKVHYLAWYQQKPGQPPKLLIYGNSNRYIGVPDRFSGSGSGTDFTLTISSLQAEDVAVYYCGQFYSYPLTFGGGTKVEIK
0.04 | 0.04 | 0.06 | 0.44 | 0.92 | PcOxP_DB02_C10 (scFv, V domains shown, scFv in periplasmic extract) VH: EVQLLESGGGLVQPGGSLRLSCAASGFTFSDYYMEWVRQAPGKGLEWVAASRNKANDYTTEYADSVKGRFTISRDNSKNTLYLQMNSLRAEDTAVYYCARDYYGSSYWYFDVWGQGTLVTVSS VL: DIVMTQSPDSLAVSLGERATINCTASESLYSSKHKVHYLAWYQQKPGQPPKLLIYGASNRYIGVPDRFSGSGSGTDFTLTISSLQAEDVAVYYCAQFYEYPLTFGGGTKVEIK
